# Laboratory results taken from patent publication US20100305307A1 (published 2010).
# B1: antibody secreted by the hybridoma E1.1 (antibody, V domains shown)
# VH: VSGGSINSGDYYWSWIRQHPGKGLDCIGYIYYSGSTYYNPSLKSRVTISVDTSKNQFFLKLTSVTAADTAVYYCARSTVVNPGWFDPWGQGTLVTVSS
# VL: TITCQASQDINNYLNWFQQKPGKAPKVLIHDASNLETGGPSRFSGSGSGTDFTFTISGLQPEDIATYYCQQYESLPLTFGGGTKVEIKR
# notes: Fully human IgG2 heavy chain with human kappa light chain; they were cloned by PCR between V-region and constant-region primers, so they are probably not full chains
# What was measured:
# [1] = target: human EGF-r expressed on the surface of human carcinoma cells (A431, SW948) (human) (UniProt P00533); test: cell-based or functional assay
# [2] = target: soluble EGF-r purified from A431 cell membranes (Sigma, E-3641) (human, UniProt P00533 25-1210, limits assumed); test: BIAcore, solid phase, antigen immobilized on the sensor surface
# Method: Determination of affinity constants of fully human Mabs by BIAcore: Affinity measurement of purified human monoclonal antibodies, Fab fragments, or hybridoma supernatants by plasmon resonance was carried out using the BIAcore 2000 instrument, using general procedures outlined by the manufacturers.
# Based upon the general procedures outlined by the manufacture, kinetic analyses of the antibodies were performed using antigens immobilized onto the sensor surface at a low density. […] The dissociation (kd or koff) and association (ka or kₒₙ) rates were determined using the software provided by the manufacturer (BIA evaluation 2.1).
Molecule,"IC50, inhibition of A431 cell proliferation in vitro [1] [nM]",Kd [2] [nM]
murine monoclonal antibody 528,0.66,
B1,,0.076
